Experimental findings from a protein production outcome set (Wang et al. 2014) are described below.

A short description of this data set: label from the status in PepcDB records.
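Further: failed if final PepcDB status was selected cloned or expressed and not failed if soluble or beyond.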

As for “MIAAPFLGLLLGLAALLLLASPWPFLAPLVVVGLFGLALLYRRPGWGLLGICALVPFEGLFKDSAFSGAKLLGASLILIMLFKLLLRQIPDSRLRSNLWRALGPFLLCLLLSMLYSENLLVSLDSLRELAVGLVLFFVTLLIAREVNLLMLCRLLAVSVAITCVIALVSAKYQVGGRAIGLLQDANYFALLIAMAVPPAIFLALRSPHWPVRLFWVGISLTLMAGMTKTDSRSGLLVVLFTIAIGVWHYRDRLKGLRPKHLGFAMFAVAIVIPLGIAVLPAEYVARIQSLSMLKSGAHSADTSLGRRTSYLVVGGQMIRQNPLLGSGLGTFPIHYAQTGFASSFSENMNEPDLFRRAHNTYLELFSELGIPGGLSFVALMLMGLRNFERARQGFLARGQREQADIATHLGLSLLAMAVFLLFLSAPNHKYLWIFLALSSVLRLQAEDAPVPRPAPA”, the protein production result is “failed”.

As for “MIALPAWLTDERLSEDIEPLLRQTDNESLERLAAEAQAVTLRRFGRVISLYTPLYLSNFCSSGCVYCGFASDRRSPRRKLDTDEIEKELLAMKALGVSDVLLLTGERTNSVGFDYLRRAVDIAARHMPRVAVEAFPMSVAEYRGLAECGCTGLTIYQETYDPDHYRELHRWGPKQDFLERLETPERAITGGIRSVGIGALLGLSEPVGEALAVLRHARYLCKTYWKAGVTVSFPRIRPQEGGFQPSFTVSDRFLARMIFAFRIGMPDVDLVLSTRESSNFRDGMAGLGITRMSIASRTTVGGYVEKETAGASQFEVSDNRSVEAFCAALRAKDLEPVFKNWDAAYNNPLPAEECT”, the protein production entry is listed as “failed”.

On to “MIAMVNDGGLALDRPTAAAIVGLFAGSMYLMTVFGGWVADNWLGQARAIWYGSIIIALGHLSIALTSVFDQSFFYLGLVLIVLGTGLFKTCISVIVGTLYKANDARRDAGFSIFYMGINMGSFIAPLITGLLAKDHGWHLGFGIGGIGMLIALLIFRFMAMPQLQTFNELRQEANSCSKPVVENKNAPKIVFSFLFAVAVVIALTFLGIIHINPVAVATYLTVGISIGIIAYFAYLLLFLNLEQHEKFKIIICFVLLAASALFWSAFEQKPTTFTLFAQDYTDRIVFGFEIPTVWFESINALFIIIFAPVAAWLWAKLGKANKDPSYISKFIIALLFAAGGFLLMSLASHFAIHGGVVSPFWLVGTLFLLTIGELCLSPIGLSTMTKLAPDVIRSQIMGLWFTGTALGNLMAGLIGGQVSADGINHLPSLFMRCVLALVIGAIVLFLLKKPMNKLMDKSTNKVQPDLETI”, for which the protein production result is on record as “failed”.

As to “MIANNIIPIIFLLIIVYGMFKGRKVYEWFLEGAKEGLMVCVKIFPALLAMMIAIRIFKDANLLNYLNNLLEPIVSLIGLPKDIVPLVLIKPLSGSGALGVYTELINTLGPDTREGLISSVIMGGTETIFYTITVYFGAVGIKKIRHTFWAALMADITAIIMAVLVVSMFFGL”, the protein production entry is recorded as “failed”.

Turning to “MIARPMVPTADQLATDDLSLSDRSRFWLAALEASGQGVAIADATHPDLILTYVNSAFKKLTGYNAAEALGKSCRFLQGSDRAQPGITTLRQAIRNGQACEVVLRNYRKDGSLFWNQLTIAPITDGQGKVSHYVALQRDITAFKEQEQALQRQGIYDEHSGLPKRQLFLDRLNQALAWSQFSGVPGALLLIDLGLPAHLDGSPSLSPDAEENLEIIANRLQAYVRPHETLAHLNHHQFGLLLLDPDVQLRAEERAHGIQTLIRDRLAGFEGGAHIGIVPLTPETPATVLLQAAEAAAMTARSQQQGHLSLEASAIVAAPEQYSRDRDWQQAIAAGELTLALQPQMGLRNRQLRGFEVQLRWQHPQQGTLLASQLMEHLEQSQHRETVGRWFLDQAGQLLSQWRNSAQFSGLFALSLLPQQWKSPSFIHDLRSLLETYQIPPEQLELDLPAQSLAESAAESWDWVYAVRDLGIGIGLADFGSRSIGLYDLRNLPLTTLKLERRFVRGLPDDANDRAIVRGVVAMSQALKVRIVARGVDTVDQAKFLARAECDAMQGLAYSAPLTIEEALQVARSPQAPAW”, the protein production result is “failed”.

“MICCLGPRGSYSEKAAVTFSKAINDSEIQFEDSIYNVFKAVETNPEFFGVVPSENSIGGSVSITQDLLLEFPVKILGEVDISINHCLLGYDIKKVTEVLAHPQALAQCGHYITKNNWNITPVDSNAKAAKIVSEEKDEKLAAICGVENAEIYGLNVLDEYIQDFKNNTTRFFLICNKNK”: the protein production result is reported as “failed”.

Turning to “MICCLNPDCLNPLNPDGKKSCQSCGTTLVPLLRNRFRVVRVLSDEGGFGRTYLSEDKDKLNEPCVIKQLAPKFQGTWSQKKAVELFAEEAKRLQELGEHPQIPTLMAYFEQDNCLYLVQQFINGQNLLKELQQRKNYRPGEIQAILLDLLPVLKFIHDRGVIHRDIKPENIIRCRTDGRLNLIDFGSSKQLTAKVQNFGTSIGSHGYSPLEQIRDGKAYAASDLFALGATCFHLITSVSPFQLWMEHGYSWVSNWRQYLHSPLTPELDFVLDKLLQKDLKHRYTSADEVIKDITPKQPLALPAAGQTSGKIPVPQTTYLSKLPKKYSLLRSVVLLSALVLLFGFSESWFSQYLQIYSSLSARLTQNKSGQVVLAQPQKTTLRTISLANTLPDDENAFVSLAISPNGQIIASCGSDRTIKIWQLATGEDISSLKGHSRKVNAVVFSPDGKTLVSGGDDNTIKIWNLKTGKVIRTITGHSDAVHTLAISPNGKTLVSGSDDNTVKVWNLNTGRLINTLTGHTFWVRSVAISPDGVNIASGSFDKTVKIWNLETGTLTHTLAGNGETVTSIAFNPDGNTLASASRDRTIKIWKVGAGTRVRTLKGSTETITSIAFSPDGNTLASASRDQTIKLWNLETGKEIRTLEGHENTVTTVAFTPDGANLVSGSGDNTMRIWRIGN”, the protein production entry is “failed”.

Consider “MICKKLIQTILLGFAMCFYLLLGAGLNPTLAATLTQVESISQPRMQTLSEPRNLESGVDSFLTSIPAGYYTIATVEELKSLLKKSQPMLVDVREASEYRAGHIPNAINIPLRTLSQNLNQIPRTRPVVLYCSSGYRSAMGVMTLHLLGYENVQGFPPSFAGWKNAKEAMTYGRSKTIAS”, for which the protein production entry is listed as “failed”.

As for “MICVYTEDRWADILAAVASVRAQSRPARETLLVVDHHQTLLERLSREYKEVPEVRVLANAGPRGLSAGRNTGIAASHGEIIAFLDDDAVAERDWLRHFAEGYEDPRVMAVGGRTMPIWASGRRPAWFPEEFDWVVGCTYKGLPPGRVRVRNVLGGNASFRRTAFDAAGGFATGIGRDGDKRPLGCEETELCIRLTRARPDAILLIDDRAVIHHRVPEPREHFAYFRTRTYAEGLSKALVARSVGAGKGLESERRYTTRVLPAGVARGLRDAALARPGGAGRAGAIVAGVLTAAGGYVLGSVRARRGGATFSVVEPPDSEGEAA”, the protein production result is recorded as “failed”.

Regarding “MIDDLLNFFNSFNVVKNYKLINQLKNEVDTLKSRLDIPRELLDGFYADRNSREYREVYEKDAPLVTVCIGTYNRGKLLVERSVRSVLEQSYGNIELIVVGDCCTDDTPRLVQGITDPRFRFINLPERGNYPENPLHRWCVAGTVPFNYALSQARGDFITHLDDDDEFVPDRIEKLVKFIQREKADLVWHPFWYERSNGRWAMRKAQEFSGGKVTTSSIFYHRWFTAVPWDIEAYRYQEPGDWNRLRKIKYLGARVARYPEPLLRHYCERNQESLSSRTIQTRNTKLEHHHHHH”, the protein production result is recorded as “failed”.

As to “MIDFTKSKQYTLSIRLSTDGFSFSIYNPINDNSQSLFEKEVDTSLSLTANLKNVFHESDFLSYSYKRVNIMIASKRFTMIPLELFEEEQAELLFYHNHQKRENEIVMYNILKKNNVVIIFGIDKSTYTFLNEQYPEARFYSQSTPLIEYFSIKSRLGNSKKMYASVRKDAIDIYCFERGQLLLANSFECMQTEDRIYYLLYVWKQLEFNQERDELHLTGTLSDKETLMNELKKFILQVFIMNPANNIDMQALLTCE”, the protein production entry is reported as “not failed”.

As for “MIDILNLALPYFGLIFVGFACGRWKKLPEQGLVWMNFFLVFVSLPALFFRIMSKTPFEELNNLPFVLATTLATAIAFFLSGMLGRLIGKLSMREATMAALSGGYGNIGYMGPGLALAVLGTQAAAPTALIFCFDTIFLFSIVPLGMALTAADKRPLIPTIIAVLREILFHPLIVAAYCGAAAAAFHVELPVAVDKMLAFLQNAAAPVALFTLGVTVALRPFGRVPWEIPSLVAVKLLLHPVIVFCLVLAFGPFSPEWAATAVLMASLPPALNVFVIARQYNTWVEPASVAVLIGTFMSVVTLTTVMWLIRTGQIPFPA”, the protein production result is “failed”.

For “MIDILPLLDWHHFVYFAIPAVLLLIVSALFALYQRRVWAICIAIAAACVLMFFIGGMWHSLERPPLRTMGETRLWYSFFVIIAGLIIYIRWKYRWILSFATVLSTVFMIINIAKPDIHNKTLMPALESPFFVPHVISYIFAYAMLGAALLVGGYFLFCKRKHKEVNAKVMMHTTDNLVYTGFAFLMTGLLLGAIWAKLAWGTYWNWDPKETWAAITVFSYLLYIHHRLHRPRAFAHSLVLLIVSFLFLQICWYGVNYLPSAKDSSIHTYTR”, the protein production result is listed as “failed”.

Turning to “MIDKQSGIPIYIQIQSEIKKKMEDGVWKVGTSIPAERQLAEMFHVSRMTVRQAIQGLVDDNILQRRVGAGTFIAEKKLTERLEAVTSFTNLMLQEGKVPSTRIVSYGIRPASTQEQEALQLPENSNVMKIERIRYGDRVPILYEVAAIPEKIASLLTKEDIMDSLYKAIELKLGQPIGEAEQIMEASLVSEKIAPYLDVKLGSPVMKLRQITTLEDGRPFEFTRSQYVGSRFQFVARIKQ”, the protein production entry is given as “failed”.

Regarding “MIDLILAIIILVSALLGLLRGFVSIIISTSSWLLASWATFEFGNTASHWLASHGIPSTTEILCGYALVFIGTLMTVGAVGMLMHAGINAIRLNNIDRIFGFALGTFRGGFIACLLLLMIGYTPLAHEPVWRNSRLVPLLQPGVSWMRAKLPQRSSPLTPQRLPLTRPMINRMGSINISVSDDNQLISRVFPPLSSNEHDKSHYVPVQPIIYKPTTTY”, the protein production entry is “failed”.

Regarding “MIDPLASPGSAPLIVIAGPTASGKSALALRVARRFNGVVINADSMQVYRDLRILSARPSVEDEAAAPHALYGVLDGAEVCSVGRWLALADGAVAAARAAGRLPILCGGTGLYLKAALEGLASVPEVAPEVRAEARELLAALGPAALHAKLAELDRAMAERLRPSDAQRIARAYEVVRGTGRSLMDWWSDPVATPALPGRPLLLVIDPPRAAQRAACDARLLAMVAAGALDELALLLARRLDPALPVMRAVGVPELARTLRGEVGLAEAVERAQGATRRYAKRQGTWIRTQLRPDRVLSESLVTQLSESQLTDIDNFLYAFLLTGAS”, the protein production entry is recorded as “failed”.

On to “MIDRNIVNLRLFRIYSKRYLKFDFVAAIVVFLVAIPLCLGIALASGAPLFSGILSGIIGGIVVGIFSGSQVSVSGPAAGMAAVVLAAISQLGDFNTFLLALTIAGLLQMIIGALRAGFVADYVPSNVVQGLLCSIGILLIIKQLPLAFTLSSDFDELKTHLLETTEGFTVSPLLALSQHINEGALIITTLSLAILIYFDITKNKILKEIPAPILVVLAGILLNELFIWTNSSLAQNSPQLVNIPDTNGFFQFFSHLEYPDWSAWTNPKVYLYALVICIVASLETLLNLKASERLDKKRRHSPTNQELVAQGLGNITSGLVGGIPVTSVIVRTSINIHAGSKTKFSAVLHGFFILFAVMLIPGALNKIPLSSLAAILIYTGYKLNKPAIYINIFSQGSDRFIPFIVTVISIIAFNLLAGILIGLAISLFYILKSNSQARIDIIKEIYPNGSTYRLMLPQQMTFLNKAALVAELDTLPRRSQLIIDARHSQYIDKEILDLFNELKEELAGSKQISVNFTGFQEHYKIHNYIDFITVTTYDVQTNLTPAQVLNILLEGNQRFLSDNRIHRSNQIDIKYTAKTQHPIAVVLACIDSRVPVETIFDMSFGDLFCVRIAGNVINDDILASIEYACNVVGAKLIMVLGHTRCGAIQSACDGIEKGHITQLLSKIKPAVNAEKETTTERNGKNQTFVNHVTELNVANTLQNIYKKSDILRTMIDSNEIGMVGAIYDVSSGKVSCKTYTEELSTLDGDENKLLAQKFETILLEAKAS”, for which the protein production result is “failed”.
